In the supplement of paper PMC12458215:
± gives the uncertainty stated by the source.

System: HEK293T
Experiment: plasma membrane surface immunostaining intensity (anti-HA, deep receptor scanning) (arbitrary fluorescence units); higher = higher plasma membrane expression

Sequence	plasma membrane surface immunostaining intensity (GPCR class: A)	also measured
MDLELDEYYNKTLATENNTAATRNSDFPVWDDYKSSVDDLQYFLIGLYTFVSLLGFMGNLLILMALMKKRNQKTTVNFLIGNLAFSDILVVLFCSPFTLTSVLLDQWMFGKVMCHIMPFLQCVSVLVSTLILISIAIVRYHMIKHPISNNLTANHGYFLIATVWTLGFAICSPLPVFHSLVELQETFGSALLSSRYLCVESWPSDSYRIAFTISLLLVQYILPLVCLTVSHTSVCRSISCGLSNKENRLEENEMINLTLHPSKKSGPQVKLSGSHKWSYSFIKKHRRRYSKKTACVLPAPERPSQENHSRILPENFGSVRSQLSSSSKFIPGVPTCFEIKPEENSDVHELRVKRSVTRIKKRSRSVFYRLTILILVFAVSWMPLHLFHVVTDFNDNLISNRHFKLVYCICHLLGMMSCCLNPILYGFLNNGIKADLVSLIHCLHM [NPY5R]	269 ± 26	–
MDLGKPMKSVLVVALLVIFQVCLCQDEVTDDYIGDNTTVDYTLFESLCSKKDVRNFKAWFLPIMYSIICFVGLLGNGLVVLTYIYFKRLKTMTDTYLLNLAVADILFLLTLPFWAYSAAKSWVFGVHFCKLIFAIYKMSFFSGMLLLLCISIDRYVAIVQAVSAHRHRARVLLISKLSCVGIWILATVLSIPELLYSDLQRSSSEQAMRCSLITEHVEAFITIQVAQMVIGFLVPLLAMSFCYLVIIRTLLQARNFERNKAIKVIIAVVVVFIVFQLPYNGVVLAQTVANFNITSSTCELSKQLNIAYDVTYSLACVRCCVNPFLYAFIGVKFRNDLFKLFKDLGCLSQEQLRQWSSCRHIRRSSMSVEAETTTTFSP [CCR7]	2440 ± 380	–
MDLKNGSLVTEFILLGFFGRWELQIFFFVTFSLIYGATVMGNILIMVTVTCRSTLHSPLYFLLGNLSFLDMCLSTATTPKMIIDLLTDHKTISVWGCVTQMFFMHFFGGAEMTLLIIMAFDRYVAICKPLHYRTIMSHKLLKGFAILSWIIGFLHSISQIVLTMNLPFCGHNVINNIFCDLPLVIKLACIETYTLELFVIADSGLLSFTCFILLLVSYIVILVSVPKKSSHGLSKALSTLSAHIIVVTLFFGPCIFIYVWPFSSLASNKTLAVFYTVITPLLNPSIYTLRNKKMQEAIRKLRFQYVSSAQNF [OR4L1]	–	plasma membrane surface immunostaining intensity (GPCR class: A (Olfactory)): 549 ± 220
MDLKTVLSLPRYPGEFLHPVVYACTAVMLLCLLASFVTYIVHQSAIRISRKGRHTLLNFCFHAALTFTVFAGGINRTKYPILCQAVGIVLHYSTLSTMLWIGVTARNIYKQVTKKAPLCLDTDQPPYPRQPLLRFYLVSGGVPFIICGVTAATNIRNYGTEDEDTAYCWMAWEPSLGAFYGPAAIITLVTCVYFLGTYVQLRRHPGRRYELRTQPEEQRRLATPEGGRGIRPGTPPAHDAPGASVLQNEHSFQAQLRAAAFTLFLFTATWAFGALAVSQGHFLDMVFSCLYGAFCVTLGLFVLIHHCAKREDVWQCWWACCPPRKDAHPALDANGAALGRAACLHSPGLGQPRGFAHPPGPCKMTNLQAAQGHASCLSPATPCCAKMHCEPLTADEAHVHLQEEGAFGHDPHLHGCLQGRTKPPYFSRHPAEEPEYAYHIPSSLDGSPRSSRTDSPPSSLDGPAGTHTLACCTQGDPFPMVTQPEGSDGSPALYSCPTQPGREAALGPGHLEMLRRTQSLPFGGPSQNGLPKGKLLEGLPFGTDGTGNIRTGPWKNETTV [ADGRA1]	–	plasma membrane surface immunostaining intensity (GPCR class: B): 2640 ± 630
MDLPPQLSFGLYVAAFALGFPLNVLAIRGATAHARLRLTPSLVYALNLGCSDLLLTVSLPLKAVEALASGAWPLPASLCPVFAVAHFFPLYAGGGFLAALSAGRYLGAAFPLGYQAFRRPCYSWGVCAAIWALVLCHLGLVFGLEAPGGWLDHSNTSLGINTPVNGSPVCLEAWDPASAGPARFSLSLLLFFLPLAITAFCYVGCLRALARSGLTHRRKLRAAWVAGGALLTLLLCVGPYNASNVASFLYPNLGGSWRKLGLITGAWSVVLNPLVTGYLGRGPGLKTVCAARTQGGKSQK [FFAR1]	265 ± 37	–
MDNASFSEPWPANASGPDPALSCSNASTLAPLPAPLAVAVPVVYAVICAVGLAGNSAVLYVLLRAPRMKTVTNLFILNLAIADELFTLVLPINIADFLLRQWPFGELMCKLIVAIDQYNTFSSLYFLTVMSADRYLVVLATAESRRVAGRTYSAARAVSLAVWGIVTLVVLPFAVFARLDDEQGRRQCVLVFPQPEAFWWRASRLYTLVLGFAIPVSTICVLYTTLLCRLHAMRLDSHAKALERAKKRVTFLVVAILAVCLLCWTPYHLSTVVALTTDLPQTPLVIAISYFITSLSYANSCLNPFLYAFLDASFRRNLRQLITCRAAA [NPBWR1]	3950 ± 330	–
MDNITWMASHTGWSDFILMGLFRQSKHPMANITWMANHTGWSDFILLGLFRQSKHPALLCVVIFVVFLMALSGNAVLILLIHCDAHLHTPMYFFISQLSLMDMAYISVTVPKMLLDQVMGVNKISAPECGMQMFFYVTLAGSEFFLLATMAYDRYVAICHPLRYPVLMNHRVCLFLSSGCWFLGSVDGFTFTPITMTFPFRGSREIHHFFCEVPAVLNLSCSDTSLYEIFMYLCCVLMLLIPVVIISSSYLLILLTIHGMNSAEGRKKAFATCSSHLTVVILFYGAAIYTYMLPSSYHTPEKDMMVSVFYTILTPVVNPLIYSLRNKDVMGALKKMLTVEPAFQKAME [OR2T4]	–	plasma membrane surface immunostaining intensity (GPCR class: A (Olfactory)): 122 ± 21
MDNLTKVTEFLLMEFSGIWELQVLHAGLFLLIYLAVLVGNLLIIAVITLDQHLHTPMYFFLKNLSVLDLCYISVTVPKSIRNSLTRRSSISYLGCVAQVYFFSAFASAELAFLTVMSYDRYVAICHPLQYRAVMTSGGCYQMAVTTWLSCFSYAAVHTGNMFREHVCRSSVIHQFFRDIPHVLALVSCEVFFVEFLTLALSSCLVLGCFILMMISYFQIFSTVLRIPSGQSRAKAFSTCSPQLIVIMLFLTTGLFAALGPIAKALSIQDLVIALTYTVLPPFLNPIIYSLRNKEIKTAMWRLFVKIYFLQK [OR14I1]	–	plasma membrane surface immunostaining intensity (GPCR class: A (Olfactory)): 118 ± 14
MDNVLPVDSDLSPNISTNTSEPNQFVQPAWQIVLWAAAYTVIVVTSVVGNVVVMWIILAHKRMRTVTNYFLVNLAFAEASMAAFNTVVNFTYAVHNEWYYGLFYCKFHNFFPIAAVFASIYSMTAVAFDRYMAIIHPLQPRLSATATKVVICVIWVLALLLAFPQGYYSTTETMPSRVVCMIEWPEHPNKIYEKVYHICVTVLIYFLPLLVIGYAYTVVGITLWASEIPGDSSDRYHEQVSAKRKVVKMMIVVVCTFAICWLPFHIFFLLPYINPDLYLKKFIQQVYLAIMWLAMSSTMYNPIIYCCLNDRFRLGFKHAFRCCPFISAGDYEGLEMKSTRYLQTQGSVYKVSRLETTISTVVGAHEEEPEDGPKATPSSLDLTSNCSSRSDSKTMTESFSFSSNVLS [TACR1]	6280 ± 110	–
MDPEETSVYLDYYYATSPNSDIRETHSHVPYTSVFLPVFYTAVFLTGVLGNLVLMGALHFKPGSRRLIDIFIINLAASDFIFLVTLPLWVDKEASLGLWRTGSFLCKGSSYMISVNMHCSVLLLTCMSVDRYLAIVWPVVSRKFRRTDCAYVVCASIWFISCLLGLPTLLSRELTLIDDKPYCAEKKATPIKLIWSLVALIFTFFVPLLSIVTCYCCIARKLCAHYQQSGKHNKKLKKSIKIIFIVVAAFLVSWLPFNTFKFLAIVSGLRQEHYLPSAILQLGMEVSGPLAFANSCVNPFIYYIFDSYIRRAIVHCLCPCLKNYDFGSSTETSDSHLTKALSTFIHAEDFARRRKRSVSL [GPR15]	342 ± 19	–
MDPLNLSWYDDDLERQNWSRPFNGSDGKADRPHYNYYATLLTLLIAVIVFGNVLVCMAVSREKALQTTTNYLIVSLAVADLLVATLVMPWVVYLEVVGEWKFSRIHCDIFVTLDVMMCTASILNLCAISIDRYTAVAMPMLYNTRYSSKRRVTVMISIVWVLSFTISCPLLFGLNNADQNECIIANPAFVVYSSIVSFYVPFIVTLLVYIKIYIVLRRRRKRVNTKRSSRAFRAHLRAPLKGNCTHPEDMKLCTVIMKSNGSFPVNRRRVEAARRAQELEMEMLSSTSPPERTRYSPIPPSHHQLTLPDPSHHGLHSTPDSPAKPEKNGHAKDHPKIAKIFEIQTMPNGKTRTSLKTMSRRKLSQQKEKKATQMLAIVLGVFIICWLPFFITHILNIHCDCNIPPVLYSAFTWLGYVNSAVNPIIYTTFNIEFRKAFLKILHC [DRD2]	1950 ± 620	–
MDPTISTLDTELTPINGTEETLCYKQTLSLTVLTCIVSLVGLTGNAVVLWLLGCRMRRNAFSIYILNLAAADFLFLSGRLIYSLLSFISIPHTISKILYPVMMFSYFAGLSFLSAVSTERCLSVLWPIWYRCHRPTHLSAVVCVLLWALSLLRSILEWMLCGFLFSGADSAWCQTSDFITVAWLIFLCVVLCGSSLVLLIRILCGSRKIPLTRLYVTILLTVLVFLLCGLPFGIQFFLFLWIHVDREVLFCHVHLVSIFLSALNSSANPIIYFFVGSFRQRQNRQNLKLVLQRALQDASEVDEGGGQLPEEILELSGSRLEQ [MRGPRX1]	6278 ± 45	–
MDPTTPAWGTESTTVNGNDQALLLLCGKETLIPVFLILFIALVGLVGNGFVLWLLGFRMRRNAFSVYVLSLAGADFLFLCFQIINCLVYLSNFFCSISINFPSFFTTVMTCAYLAGLSMLSTVSTERCLSVLWPIWYRCRRPRHLSAVVCVLLWALSLLLSILEGKFCGFLFSDGDSGWCQTFDFITAAWLIFLFMVLCGSSLALLVRILCGSRGLPLTRLYLTILLTVLVFLLCGLPFGIQWFLILWIWKDSDVLFCHIHPVSVVLSSLNSSANPIIYFFVGSFRKQWRLQQPILKLALQRALQDIAEVDHSEGCFRQGTPEMSRSSLV [MRGPRX2]	359 ± 8.2	–
MDQFPESVTENFEYDDLAEACYIGDIVVFGTVFLSIFYSVIFAIGLVGNLLVVFALTNSKKPKSVTDIYLLNLALSDLLFVATLPFWTHYLINEKGLHNAMCKFTTAFFFIGFFGSIFFITVISIDRYLAIVLAANSMNNRTVQHGVTISLGVWAAAILVAAPQFMFTKQKENECLGDYPEVLQEIWPVLRNVETNFLGFLLPLLIMSYCYFRIIQTLFSCKNHKKAKAIKLILLVVIVFFLFWTPYNVMIFLETLKLYDFFPSCDMRKDLRLALSVTETVAFSHCCLNPLIYAFAGEKFRRYLYHLYGKCLAVLCGRSVHVDFSSSESQRSRHGSVLSSNFTYHTSDGDALLLL [CX3CR1]	196 ± 34	–
MDRRMWGAHVFCVLSPLPTVLGHMHPECDFITQLREDESACLQAAEEMPNTTLGCPATWDGLLCWPTAGSGEWVTLPCPDFFSHFSSESGAVKRDCTITGWSEPFPPYPVACPVPLELLAEEESYFSTVKIIYTVGHSISIVALFVAITILVALRRLHCPRNYVHTQLFTTFILKAGAVFLKDAALFHSDDTDHCSFSTVLCKVSVAASHFATMTNFSWLLAEAVYLNCLLASTSPSSRRAFWWLVLAGWGLPVLFTGTWVSCKLAFEDIACWDLDDTSPYWWIIKGPIVLSVGVNFGLFLNIIRILVRKLEPAQGSLHTQSQYWRLSKSTLFLIPLFGIHYIIFNFLPDNAGLGIRLPLELGLGSFQGFIVAILYCFLNQEVRTEISRKWHGHDPELLPAWRTRAKWTTPSRSAAKVLTSMC [GHRHR]	–	plasma membrane surface immunostaining intensity (GPCR class: B): 108 ± 5.4
MDSFNYTTPDYGHYDDKDTLDLNTPVDKTSNTLRVPDILALVIFAVVFLVGVLGNALVVWVTAFEAKRTINAIWFLNLAVADFLSCLALPILFTSIVQHHHWPFGGAACSILPSLILLNMYASILLLATISADRFLLVFKPIWCQNFRGAGLAWIACAVAWGLALLLTIPSFLYRVVREEYFPPKVLCGVDYSHDKRRERAVAIVRLVLGFLWPLLTLTICYTFILLRTWSRRATRSTKTLKVVVAVVASFFIFWLPYQVTGIMMSFLEPSSPTFLLLKKLDSLCVSFAYINCCINPIIYVVAGQGFQGRLRKSLPSLLRNVLTEESVVRESKSFTRSTVDTMAQKTQAV [C5AR1]	6196 ± 24	–
